Tests used:
[1] = molecular target: T1, Oct-2 (UniProt P09086 1-479); assay: competition
[2] = molecular target: T1, Oct-2; assay: EMSA
[3] = molecular target: T1, Oct-2; assay: competition; remark: listed apart in the source

T1 sequence (P09086 whole entry): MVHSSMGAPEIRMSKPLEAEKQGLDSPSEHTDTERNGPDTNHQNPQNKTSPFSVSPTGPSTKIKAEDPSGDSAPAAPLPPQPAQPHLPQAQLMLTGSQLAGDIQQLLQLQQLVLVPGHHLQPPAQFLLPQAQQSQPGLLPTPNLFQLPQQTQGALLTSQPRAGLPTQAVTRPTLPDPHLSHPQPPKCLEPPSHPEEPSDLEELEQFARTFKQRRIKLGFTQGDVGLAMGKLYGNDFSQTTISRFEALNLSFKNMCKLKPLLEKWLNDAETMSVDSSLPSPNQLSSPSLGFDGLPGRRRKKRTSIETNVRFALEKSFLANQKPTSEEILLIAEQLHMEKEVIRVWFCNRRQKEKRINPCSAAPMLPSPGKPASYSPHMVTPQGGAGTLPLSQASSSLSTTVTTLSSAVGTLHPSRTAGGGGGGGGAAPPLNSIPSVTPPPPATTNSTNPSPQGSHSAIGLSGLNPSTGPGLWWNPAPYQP

B1: IL2-OAP/mOCT (dsDNA)
DNA 1: TTGAAAATATGTGTAATATAATACTCATTT
DNA 2: AAATGAGTATTATATTACACATATTTTCAA
[1]
  binding result: no binding

B2: IL2-deltaOAP/OCT (dsDNA)
DNA 1: ATATGTAAAACATTT
DNA 2: AAATGTTTTACATAT
[2]
  binding result: binds

B3: IL2-mOAP/OCT (dsDNA)
DNA 1: TTGAAAATATTTTTAATATGTAAAACATTT
DNA 2: AAATGTTTTACATATTAAAAATATTTTCAA
[3]
  binding result: binds

From paper PMC2191694
